Consider 1 molecule from patent US20250270315A1 (ELPISCIENCE SUZHOU BIOPHARMA, published 2025).

In general, EC50 refers to the concentration needed to bring the measured effect to its halfway point. Usually IC50 stands for the concentration needed to halve the response being measured. For orientation: EC50 (read off the curve) means the concentration that produces a half-maximal response. Read a low EC50 (read off the curve) as an effect from little substance.

Experiment [1] concerns the target T1, human SIRPβ ECD recombinant protein (6×His tagged) (human, UniProt O00241 30-371).
T1 construct: extracellular domain; Bought from Sino Biological; also called hSIRPβ ECD; not shown: 6×His tag
In words: ELISA, hSIRPβ ECD. The text has this: (§1) Binding activity of the purified chimeric antibodies against SIRPβ and SIRPBI was detected by ELISA assay using recombinant proteins of human SIRPβ ECD (FIGS. 3A and 3B), human SIRPBI ECD (FIGS. 3D and 3E) and FACS assay using CHOK 1 cells stably expressing human SIRPB (FIG. 3C).
In general terms: In an ELISA, binding on a coated surface is turned into a signal by an enzyme label.

Experiment [2] has as its target T2, human SIRPγ stably expressed on 293F cells (human, UniProt Q9P1W8 29-387).
T2 construct: whole, on cells
As to the kind of experiment: FACS, 293F-hSIRPγ cells. From the text:
(§2) All the humanized antibodies as tested were confirmed to retain the similar activity as the parental antibody of 025c to bind to SIRP family members.
A general note: In flow cytometry, cells or beads pass a laser one at a time.

Experiment [3] has as its target T3, human SIRPβ stably expressed on CHOK1 cells (human, UniProt O00241 30-398).
T3 construct: whole, on cells; also called CHOK1-human SIRPB; CHOK1-hSIRPβ
As to the kind of experiment: FACS, CHOK1-hSIRPβ cells.
Description: as §1

For experiment [4], the target named is T4, full length human SIRPα v1 stably expressed on CHOK1 or 293F cells (human, UniProt P78324 31-504).
T4 construct: whole, on cells; also called CHOK1-human SIRPα v1; CHOK1-hSIRPα v1
T4 sequence (P78324 31-504): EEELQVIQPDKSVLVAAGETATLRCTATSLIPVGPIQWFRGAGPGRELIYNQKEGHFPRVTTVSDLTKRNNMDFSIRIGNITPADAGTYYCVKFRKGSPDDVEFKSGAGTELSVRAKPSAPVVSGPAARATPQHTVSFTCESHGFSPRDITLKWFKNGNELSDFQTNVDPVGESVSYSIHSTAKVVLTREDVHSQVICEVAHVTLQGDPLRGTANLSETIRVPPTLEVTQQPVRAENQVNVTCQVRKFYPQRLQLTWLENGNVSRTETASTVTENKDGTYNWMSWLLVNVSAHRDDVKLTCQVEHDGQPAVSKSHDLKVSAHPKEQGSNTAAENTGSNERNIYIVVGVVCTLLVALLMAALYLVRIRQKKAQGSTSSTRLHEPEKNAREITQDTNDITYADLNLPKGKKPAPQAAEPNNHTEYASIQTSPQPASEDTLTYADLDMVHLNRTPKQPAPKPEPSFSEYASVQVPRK
As to the kind of experiment: FACS, CHOK1-hSIRPα v1 cells.
Description: as §2

Experiment [5] addresses T5, C57BL/6 mouse SIRPα ECD recombinant protein (6×His tagged) (C57BL/6 mouse, UniProt P97797 32-373).
T5 construct: extracellular domain; Bought from Biointron; not shown: 6×His tag
T5 sequence (looked up): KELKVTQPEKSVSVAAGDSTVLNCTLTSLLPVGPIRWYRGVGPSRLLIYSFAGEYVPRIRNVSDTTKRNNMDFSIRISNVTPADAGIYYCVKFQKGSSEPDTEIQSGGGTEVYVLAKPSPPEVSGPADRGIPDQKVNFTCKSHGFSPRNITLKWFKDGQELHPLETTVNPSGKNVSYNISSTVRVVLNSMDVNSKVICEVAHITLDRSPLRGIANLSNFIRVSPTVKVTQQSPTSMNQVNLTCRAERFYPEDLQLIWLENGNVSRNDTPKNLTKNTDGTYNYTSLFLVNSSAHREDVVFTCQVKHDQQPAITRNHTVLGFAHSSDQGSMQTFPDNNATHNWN
As to the kind of experiment: ELISA, recombinant C57BL/6 mouse SIRPα ECD. From the text:
Species cross reactivity of purified chimeric antibodies was detected by ELISA assay using recombinant protein of C57BL/6 mouse SIRPα ECD (FIG. 5A) and FACS assay using CHOK 1 cells stably expressing cyno SIRPα (FIGS. 5B and 5C). All antibodies as tested bind to cyno SIRPα at different levels but have no species cross reactivity against C57BL/6 mouse SIRPα.

In experiment [6] the target is T6, human SIRPα v1 ECD recombinant protein (tag not given) (human, UniProt P78324 31-373).
T6 construct: extracellular domain; also called biotin labeled soluble human SIRPα v1 ECD recombinant protein; ELISA microplate coated human SIRPα v1 ECD
T6 sequence (P78324 31-373): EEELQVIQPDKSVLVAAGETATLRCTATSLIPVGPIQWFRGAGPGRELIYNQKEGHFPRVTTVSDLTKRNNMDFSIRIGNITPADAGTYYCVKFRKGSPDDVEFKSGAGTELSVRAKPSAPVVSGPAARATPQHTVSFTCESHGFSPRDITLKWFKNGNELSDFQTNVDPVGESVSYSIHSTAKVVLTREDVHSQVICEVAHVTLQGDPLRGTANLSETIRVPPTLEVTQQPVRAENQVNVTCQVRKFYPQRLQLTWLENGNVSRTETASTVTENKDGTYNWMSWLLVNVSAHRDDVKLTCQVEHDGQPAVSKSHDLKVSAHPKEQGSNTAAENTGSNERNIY
In words: competitive ELISA, mFc-CD47 ECD on coated SIRPα v1 ECD. The method, then: (§3) Competitive ELISA assay was used to determine whether the purified chimeric antibodies can block CD47 and SIRPα interaction. Briefly, antibody and mFc tagged human CD47 ECD recombinant protein were co-incubated with ELISA microplate coated human SIRPα v1 ECD (FIGS. 6A and 6B) or human SIRPα v2 ECD (FIGS. 7A and 7B) recombinant protein. After washing, HRP labeled anti-mouse Fc 2nd antibody (Sigma) was added and incubated at 37° C. for 1 hour. Then, 100 μl/well of TMB solution (Biotechnology) was added. After incubation for 15 minutes at room temperature, the reaction was stopped by the addition of 50 μl of 1N HCl. OD 450 nm was read. Blocking ratio was determined by blockade of human CD47 ECD recombinant protein binding to ELISA microplate coated human SIRPα ECD recombinant protein. Other than 005, all antibodies as tested can block interaction between human CD47 and different human SIRPα variants.
(§4) The humanized antibodies were tested for the ability to block CD47 and SIRPα interaction with competitive ELISA assay (refer to methods described in Example 4.2.3.).

Experiment [7] addresses T7, human SIRPα v2 ECD recombinant protein (tag not given) (human).
T7 construct: extracellular domain; also called ELISA microplate coated human SIRPα v2 ECD
As to the kind of experiment: competitive ELISA, mFc-CD47 ECD on coated SIRPα v2 ECD. The method, then:
as §3, §4

The target of experiment [8] is T3, human SIRPβ stably expressed on CHOK1 …. In words: FACS, CHOK1 cells stably expressing human SIRPβ.
Description: as §2

The target in experiment [9] is T8, mFc tagged human SIRPα v1 ECD recombinant protein (human, UniProt P78324 31-373).
T8 construct: extracellular domain; Bought from Biointron; not shown: mouse IgG Fc (mFc) tag
T8 sequence (P78324 31-373): as above
As to the kind of experiment: competitive ELISA binning, mFc-SIRPα v1 ECD; competitor hu1H9G4. The method, then:
Competitive ELISA assay was used for epitope binning of purified chimeric antibodies. Briefly excessive competitor antibody and mFc tagged human SIRPα v1 ECD recombinant protein were co-incubated with ELISA microplate coated antibody. After washing, HRP labeled anti-mouse Fc 2nd antibody (Sigma) was added and incubated at 37° C. for 1 hour. Then, 100 μl/well of TMB solution (Biotechnology) was added. After incubation for 15 minutes at room temperature, the reaction was stopped by the addition of 50 μl of 1N HCl. OD 450 nm was read. Competition ratio was calculated. The antibodies that can compete each other for binding to SIRPα may have related binding epitopes.

In experiment [10] the target is T6, human SIRPα v1 ECD recombinant protein …. In words: competitive ELISA, coated human SIRPα v1 ECD, blocked ligand mFc tagged human CD47 ECD. Here is the method: as §3
Experiment [11] addresses T7, human SIRPα v2 ECD recombinant protein …. In words: competitive ELISA, coated human SIRPα v2 ECD, blocked ligand mFc tagged human CD47 ECD. Here is the method: as §3

T3 sequence (O00241 30-398): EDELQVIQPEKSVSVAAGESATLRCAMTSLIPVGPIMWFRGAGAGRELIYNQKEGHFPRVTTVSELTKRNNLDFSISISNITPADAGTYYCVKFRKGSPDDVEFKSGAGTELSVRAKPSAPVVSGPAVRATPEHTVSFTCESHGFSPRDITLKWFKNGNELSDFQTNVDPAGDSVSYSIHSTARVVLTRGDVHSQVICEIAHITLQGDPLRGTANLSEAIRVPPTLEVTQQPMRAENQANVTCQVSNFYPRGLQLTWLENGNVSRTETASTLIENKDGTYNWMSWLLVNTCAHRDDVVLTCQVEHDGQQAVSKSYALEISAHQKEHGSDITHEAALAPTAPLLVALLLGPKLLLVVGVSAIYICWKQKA
T2 sequence (Q9P1W8 29-387): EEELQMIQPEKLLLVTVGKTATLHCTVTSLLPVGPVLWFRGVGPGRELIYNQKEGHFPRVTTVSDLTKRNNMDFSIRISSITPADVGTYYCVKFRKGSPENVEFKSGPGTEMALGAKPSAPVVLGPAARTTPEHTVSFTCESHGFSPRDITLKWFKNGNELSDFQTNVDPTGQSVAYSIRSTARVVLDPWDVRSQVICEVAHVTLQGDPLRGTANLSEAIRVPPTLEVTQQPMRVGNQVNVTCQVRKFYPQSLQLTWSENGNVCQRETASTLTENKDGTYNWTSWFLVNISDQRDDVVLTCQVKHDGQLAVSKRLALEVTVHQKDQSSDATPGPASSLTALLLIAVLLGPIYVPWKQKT
T1 sequence (O00241 30-371): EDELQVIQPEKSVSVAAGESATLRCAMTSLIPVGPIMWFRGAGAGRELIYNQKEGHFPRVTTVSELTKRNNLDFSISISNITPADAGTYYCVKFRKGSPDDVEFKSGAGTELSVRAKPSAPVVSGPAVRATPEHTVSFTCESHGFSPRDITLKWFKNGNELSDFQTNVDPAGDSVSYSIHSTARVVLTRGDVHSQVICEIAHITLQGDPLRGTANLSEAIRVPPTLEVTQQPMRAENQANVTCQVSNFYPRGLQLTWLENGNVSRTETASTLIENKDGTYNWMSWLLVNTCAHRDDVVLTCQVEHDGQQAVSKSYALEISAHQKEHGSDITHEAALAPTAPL

B1: 025c (antibody, V domains shown)
VH: EVQLQQSGAELVKPGASVKLSCTASGFNIKDYYMHWVKQRTEQGLEWIGRIDPEDGETKYAPKFQGKATITADTSSNTAYLQLSSLTSEDTAVYYCDRGLAYWGQGTLVTVSA
VL: QIVLTQSPAIMSASPGEKVTLTCSASSSVSSSYLYWYQQKPGSSPKLWIYSTSNLASGVPARFSGSGSGTSYSLTISSMEAEDAASYFCHQWSSYPYTFGGGTKLEIK
notes: also called chimeric antibody 025c; parental antibody of 025c
As for B1, the EC50 in experiment [1] was found to be 0.04 nM; in experiment [2], 0.2 nM; in [3] it was 0.38 nM; in [4], 1.22 nM. Moreover, the “TOP OD450” value in experiment [1] amounted to 3.1 OD450. Moreover, the “TOP MFI” value amounted to 22800 MFI in experiment [2], 10900 MFI in [3] and 64700 MFI in [4]. In addition, in experiment [5], the binding result is “no binding”. For the same molecule, the half-inhibitory concentration (IC50) in [6] came out at 2.03 nM; in [7], 1.86 nM. The “TOP blocking (%)” value stood at 97.5% in [6] and 98.6% in experiment [7]. The half-maximal effective concentration (EC50 (read off the curve)) in [8] is roughly 0.7 nM. Besides, the “% Competition” value in [9] is 15.3%. The results for the “IC50 (read off the curve)” value in experiment [10] and in [11] were 2 to 3 nM and roughly 2 nM, respectively.
